Test results: US20180292409A1 (REGENTS OF THE UNIVERSITY OF MINNESOTA, published 2018)

Target: T1, progesterone receptor (PR) (human, UniProt P06401 1-933, limits assumed)
T1 construct: also called total PR; PR-A
T1 sequence (looked up): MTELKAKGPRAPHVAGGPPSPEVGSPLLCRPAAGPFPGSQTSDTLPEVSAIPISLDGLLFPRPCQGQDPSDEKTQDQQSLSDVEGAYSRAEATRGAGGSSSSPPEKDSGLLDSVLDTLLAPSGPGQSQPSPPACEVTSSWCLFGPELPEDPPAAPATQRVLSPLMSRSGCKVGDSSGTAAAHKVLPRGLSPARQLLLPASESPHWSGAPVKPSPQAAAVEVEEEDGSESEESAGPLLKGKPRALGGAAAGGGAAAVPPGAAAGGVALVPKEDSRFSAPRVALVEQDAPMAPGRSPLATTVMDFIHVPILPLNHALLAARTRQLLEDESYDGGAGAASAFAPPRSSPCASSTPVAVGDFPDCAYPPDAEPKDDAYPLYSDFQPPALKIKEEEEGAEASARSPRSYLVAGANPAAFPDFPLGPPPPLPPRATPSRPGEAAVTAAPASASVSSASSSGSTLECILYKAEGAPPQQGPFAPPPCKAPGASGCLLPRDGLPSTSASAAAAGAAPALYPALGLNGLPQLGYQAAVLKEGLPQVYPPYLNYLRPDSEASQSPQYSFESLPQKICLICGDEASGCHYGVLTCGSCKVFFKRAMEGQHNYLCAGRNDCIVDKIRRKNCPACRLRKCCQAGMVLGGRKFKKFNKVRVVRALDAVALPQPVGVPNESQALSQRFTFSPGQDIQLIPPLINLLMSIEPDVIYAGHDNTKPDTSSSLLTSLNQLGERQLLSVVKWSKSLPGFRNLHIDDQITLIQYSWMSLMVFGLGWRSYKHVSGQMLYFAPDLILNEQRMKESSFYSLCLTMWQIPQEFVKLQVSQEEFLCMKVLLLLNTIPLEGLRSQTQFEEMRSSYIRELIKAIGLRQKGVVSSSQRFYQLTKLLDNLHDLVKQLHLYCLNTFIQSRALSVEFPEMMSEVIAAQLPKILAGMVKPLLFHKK
Assay: co-immunoprecipitation from breast cancer cell whole cell lysates

- binding result: no binding
B1: RUNX2 (other, UniProt Q13950 1-521, looked up)
chain: MASNSLFSTVTPCQQNFFWDPSTSRRFSPPSSSLQPGKMSDVSPVVAAQQQQQQQQQQQQQQQQQQQQQQQEAAAAAAAAAAAAAAAAAVPRLRPPHDNRTMVEIIADHPAELVRTDSPNFLCSVLPSHWRCNKTLPVAFKVVALGEVPDGTVVTVMAGNDENYSAELRNASAVMKNQVARFNDLRFVGRSGRGKSFTLTITVFTNPPQVATYHRAIKVTVDGPREPRRHRQKLDDSKPSLFSDRLSDLGRIPHPSMRVGVPPQNPRPSLNSAPSPFNPQGQSQITDPRQAQSSPPWSYDQSYPSYLSQMTSPSIHSTTPLSSTRGTGLPAITDVPRRISDDDTATSDFCLWPSTLSKKSQAGASELGPFSDPRQFPSISSLTESRFSNPRMHYPATFTYTPPVTSGMSLGMSATTHYHTYLPPPYPGSSQSQSGPFQTSSTPYLYYGTSSGSYQFPMVPGGDRSPSRMLPPCTTTSNGSTLLNPNLPNQNDGVDADGSHSSSPTVLNSSGRMDESVWRPY
notes: also called runt-related transcription factor 2
